Source: patent US20250121076A1, “POLYPEPTIDE DRUG CONJUGATE HAVING NOVEL STRUCTURE AND APPLICATION THEREOF” (MEDSHINE DISCOVERY INC., priority 2021, published 2025)
Counter-ions that a name gives are not always drawn. Starred links: 1 amine or outer side, 2 acyl side, 3 side chain; linkers in the order of their positions; H or OH if unused. Positions of bridges follow the written chain, without caps; N, C: chain ends. Non-standard residues stand in square brackets, D forms with d. Residues, ends and D or L forms follow the SMILES beside them. Chains are numbered I, II in the order given. *: point of attachment. TATA = O=C(CC[*:1])N1CN(C(=O)CC[*:2])CN(C(=O)CC[*:3])C1; Dolaproine = CO[C@@H]([C@@H]1CCCN1)[C@@H](C)C(=O)O; Dil = CC[C@H](C)[C@H](NC)[C@@H](CC(=O)O)OC; X2 = O=C(CCCC(=O)[*:2])NCCC(=O)[*:1]; PABC = O=C(OCc1ccc(N[*:1])cc1)[*:2]; X1 = C[C@@H](N*)[C@@H](O)c1ccccc1; Hyp = O=C(O)[C@@H]1C[C@@H](O)CN1; hArg = N=C(N)NCCCC[C@H](N)C(=O)O; Cit = NC(=O)NCCC[C@H](N)C(=O)O; Pen = CC(C)(S)[C@H](N)C(=O)O; NMeV = CN[C@H](C(=O)O)C(C)C; Sar = CNCC(=O)O

Assay: Pharmacokinetic analysis in rat plasma at different doses (6.2)
Type: in vivo, SD rats
Conditions: rat, in vivo, male SD rats
Description: Experimental purpose: To test the pharmacokinetics of the compounds of the present invention in SD rats.
6.2 The pharmacokinetic characteristics of the compound after intravenous injection and oral administration were tested in rats according to a standard protocol. The compound to be tested was formulated into a clear solution using 50 mM acetate buffer (pH=5) in 10% sucrose as a vehicle. Three male SD rats were given a single intravenous injection of 2.5 mg/kg, 3.75 mg/kg, or 5 mg/kg of the compound to be tested. Whole blood was collected at time points of 0.083, 0.25, 0.5, 1, 4, and 24 hours after administration to get plasma. The concentration of the compound to be tested and the concentration of its potential metabolite MMAE were analyzed by the LC-MS/MS method, and the pharmacokinetic parameters were calculated.

## CC[C@H](C)[C@@H]([C@@H](CC(=O)N1CCC[C@H]1[C@H](OC)[C@@H](C)C(=O)N[C@H](C)[C@@H](O)c1ccccc1)OC)N(C)C(=O)[C@@H](NC(=O)[C@H](C(C)C)N(C)C(=O)OCc1ccc(NC(=O)[C@H](CCCNC(N)=O)NC(=O)[C@@H](NC(=O)CCCC(=O)NCCC(=O)N(C)CC(=O)N(C)CC(=O)N(C)CC(=O)N(C)CC(=O)N(C)CC(=O)N(C)CC(=O)N(C)CC(=O)N(C)CC(=O)N(C)CC(=O)N(C)CC(=O)N[C@H]2CCCCNC(=O)C[C@@H](C(=O)N[C@H]3CSCCC(=O)N4CN5CN(C4)C(=O)CCSC(C)(C)[C@@H](C(N)=O)NC(=O)[C@H](CCCCNC(=N)N)NC(=O)[C@H](Cc4c[nH]c6ccccc46)NC(=O)[C@@H](CC(=O)O)NC(=O)[C@@H]4CCCN4C(=O)[C@H](Cc4c[nH]cn4)NC(=O)[C@H](CC(C)C)NC(=O)[C@H](CSCCC5=O)NC(=O)[C@H](CC(C)C)NC(=O)[C@@H]4CCCN4C(=O)[C@H](CC(N)=O)NC(=O)[C@H](C(C)C)NC(=O)[C@H](CC(C)C)NC(=O)[C@@H]4C[C@@H](O)CN4C3=O)NC(=O)[C@H](CCCCNC(=N)N)NC2=O)C(C)C)cc1)C(C)C [Acetate salt of PDC_8] (I: [Sar][Sar][Sar][Sar][Sar][Sar][Sar][Sar][Sar][Sar]K[hArg]DC[Hyp]LVNPLCLHP[dD]W[hArg][Pen]-NH2 / II: V[Cit][PABC][NMeV]V[Dil][Dolaproine]-X1; lactam I:11-I:13; linker I:14-I:21-I:28 via TATA; linker I:N-II:N via X2)
Single IV 2.5 mg/kg
  AUC(0-t): 0.765 µM·h
  Cmax: 1960 nM
Single IV 3.75 mg/kg
  AUC(0-t): 3.09 µM·h
  Cmax: 2750 nM
Single IV 5 mg/kg
  AUC(0-t): 5.65 µM·h
  Cmax: 4590 nM
